Source: article PMC9576728

Assays:
POU2F3 = POU2F3 (UniProt Q9UKI9); experiment: co-immunoprecipitation (IP:HA) and western blot, quantified; conditions: HEK293T cells, IP:HA lanes, parent: 1
FLAG-POU2F3 = FLAG-POU2F3 (UniProt Q9UKI9); experiment: co-immunoprecipitation (IP:FLAG) and western blot, quantified; conditions: HEK293T cells, IP:FLAG lanes, parent: 1

HA-COLCA2 (WT) (from UniProt A8K830) VKELL>DAAPP (V>D; K>A; E>A; L>P; L>P; residue numbers not printed)
ratio to parent (POU2F3; normalised POU2F3/COLCA2 ratio): 0.37
ratio to parent (POU2F3; raw POU2F3 band (untagged control lane 0.29; HA bait band WT 1, DAAPP 1.44)): 0.53
ratio to parent (FLAG-POU2F3; normalised COLCA2/POU2F3 ratio): 0.52
ratio to parent (FLAG-POU2F3; raw HA band (V5-POU2F3 control lane 0; FLAG bait band WT 1, DAAPP 1.07, V5 control 0.09)): 0.56
